Measured values: the DeepSol protein solubility set

Test: soluble on expression in E. coli; label from the status in PepcDB or PDB records

Soluble on expression in E. coli, not soluble:
MSQFAVIIFGDQAKANEASRVLTELQADNSLVLFSQAVIAKDLAGTVSLMAPASGGAVGSAVSGLASRLIGVPVGGHGDLSDAGVLDSFCQEAADALKPGATAIVAEISEDRLGPLNTQMHALGGQVLRSCNSDSEGDEIAKQTARQIANIERLNAEYVRAPQDADKPGETPVDAVTLAPDERASNQSIVKANAEARSAKLSQACGLTKDALG
MPAFVERTPSAEVPRQVLRPHAEHAFAAELASLAGQDDRPRPARWRLSPWAVATYLLGGTLPDGTVITPKYVGPRRVVEVAVTTLATDRALLLLGVPGTAKTWVSEHLAAAVSGDSTLLVQGTAGTPEEAIRYGWNYARLLAHGPGRDALVPSPVMRAMTEGATVRVEELTRIPADVQDSLITLLSEKTLPIPELGEEVQAVRGFNLIATANDRDRGVNDLSSALRRRFNTVVLPLPESAEAEVDIVTRRVDQIGRSLDLPSAPDGTDEIRRVVTVFRELRDGLTSDGRTKVKSPSGPLSTAEAISVVTGGLALCAHFGDGVLRAGDLAAGVLGAVVRDPGTDRVVWQEYLETVVREREGWQDFYRACREVTALEHHHHHH
MKAREILEILNAELLTGEENLDMEFNAACGSDLMSDVMAYVKENVVLLTGLVNPQVIRTAEMMDIKLVVFIRGKRPEEKIIQMAKEKGIAIMTTNDPMFIACGKLYSAGITERGVWD
MSFTDNWSDEEFIRQMKELIGNEGDMHVTCNHSEGEQVTETHVTREKALWYRHNGDREGMLVCLNLSRVEVLNQRYFLGPCPF
MGSDKIHHHHHHMEIVFVYDAVYPWTKGGVERRLHEVGRRLSNEHNVKWLCVGWWGKEKRIQEGVELIPVCKAQQLYSRGRRTIREAMIFAASLLKKSRIKADVIDCQVFPYLSVFPFATRKELVLTWHEFWGDYWYEYLGKAGFFGKAVERIVAKLKARTIAVSETTRKALESLGIRATVIPNGVDFPRISEIPASSEEWDVIFVGRLIREKNLELLFDAMKLLPELNCLVVGDGPERERLSKIAPANVDFGGSLGYEEVISMMKSSKVFAIPSRREGFGISALEANACGLPVVTIRHQMNAVVEIAEKTGFVAEPHARDFAEKIRLALEMRREMREKCINFAKNFDWEVIARRLEEFYEGVHSPPNEGRAE
MSEAWITLATNDNYAQGALVLVHSLRTAGTTRKIHCLISNEVSAPVRKQLEEHFDDVSIVDVFNSNDSDNLRLIERPDLGVTFTKLHCWRLTQYTKCVFLDADTLVLRNADELFTRPDFSAASDIGWPDSFNSGVFVYVPNNETYRQLVDFAVTHGSYDGGDQGLLNDFFSNWRDLPSEHRLPFIYNMTAGAFYTYAAAYKRYGANTKIVHFIGSVKPWHGSAAVHTGEHFQQWQKIYHAHVNHTSRTNEHAAVFPSHHHTPEHRSHSADHPKIERKDSIVREIGNFVMHVVQSVNILPSYDTDANTSDSHRNNEPHKHDQQREEHHELPHNKFQTPHEESQDIVGSTDCFGSQMPKYNADSETDREVEQITNNTPCPAFVPFERREEYQAASPSTEERRAAWEAGQPDYLGRDAFVHIQEALNRALNE
MSLATIATLRVLLLAIPDDAAPESDLNLVSWTILNGLRRECERRGIRIVPFVSTGRRIDGAQVRQMALAERADGIVVLNDDQPELIRSLASPDMPVVIVNGEDPAMLVDTVTPENRFGARLGIEHLLALGHRRILHLTWKGRTTIQRRYDGFSDAYLAAQLPVPDNMVVEAEGYEPRHGEAAINALLDRDATVKGATAVFCAADNMALGCLKALADRDIRVPEAISVLGFDDIVPGEFSRPPLSTVSVPTDKLGAAALALIEQRLIANDPQRPAHRLELGCHLVLRGSEGHHHHHH
MGSDKIHHHHHHMAKKTAVVDLGSNSIRMVIFEKTSRYGFYTTCEYKRKVRLGENAYNNGKILQEEAMQRAEDALAFFKQCALKHKCKKIFIVGTSALRDAPNSKNFIKRIKDNLSLNIRCIDGKSESYLGGLAALNLLSPFKDGTTLDIGGGSSELCLIKNNRIISCISLDIGTVRLKELFYDTGKMDSLEEFIKPILEQIPKEFCNQNLIAIGGSLRAISNSIMQKNSYPLKNLHDFRYMLDEEKGHILKIFNSNLDSLINFGIKKDRFDTIKEGIFIFLKIAEKIKAKQVITSGVGIREGVYLQDLLRPKITFPPNFNPSLKCLQDKFLQSKQKNKTPHFALQIFTTLKNLHKLNDNYKHTLLNAAKLCHIGEYLNFYFANEHSAHFVLGGLNYGFSHKEKALIASIIKLNGKKVNPYNLEPYKQLLPNIHTISWLNFILCLAKTLSANEDKIDFAFANNTLYIYQENKILNLPKDELKKIAKPATIALAINQKI
MGSDKIHHHHHHMIGYGLPMPNQAHFSASFARPSTPAAKCMHHIRLGQQLIRNELVEATGLSQPTVTRAVTALMQAGLVRERPDLTLSSGPGRPNIPLELAPSPWIHAGVAIGTKSSYVALFDTKGRTLRDAMLEISAADLDPDTFIEHLIAGVNRLTTGLDLPLVGIGVATSGKVTNAGVVTASNLGWDGVDIAGRLNYQFSVPATVASAIPAIAASELQASPLPHPEQPTPITLTFYADDSVGAAYSNDLGVHVIGPLATTRGSGLDTLGMAAEDALSTQGFLSRVSDQGIFANSLGELVTIAKDNETAREFLNDRATLLAHTAAEAAETVKPSTLVLSGSAFSEDPQGRSVFASQLKKEYDADIELRLIPTHRENVRAAARAVALDRLLNEPLTLVP
MYCHAKLKNISQHTVISAHLFLPDYSPMNRDSFYPAIACFPLLLMLAGCAPMHETRQALSQQTPAAQVDTALPTALKMVGQTANGGWSITIINSLPLEHHHHHH
MNIKYSGIENRFETAILKKNGVRSGFVSFAPNLAAVKLNDYAKVRKRITKTKQKADIVIVMFHGGAEGKQAEHLPFDTEIFYGENRGNVVEFARLAVDSGADVVFGQGPHVTRAVELYRDRFISYSGGNFATYGAINTSGISGIAPIFKIITDKQGRFVSGNIIPITQVGDKIPKIDPEKTVIGRIIYLNRSDFPKGNGLDVSPDGSITRR
MRKVTLMDVFTHPIAQKYLQRSGVAHAIACAYHAYRLSVKADINPDLAAKAALLHDIGHYEWYTDGKWDYEKYKRNDIHAIKGAERAHKLLIRLGEEPKAAKEIALAILLHTDSYLPEGELDKNTLQQIVKKADELDEEPGGHHHYRQIDPSTARKKIEKLDQLIDQAQASVIKPV
MTPHPRLSIGLPVYNGEEYLAESLDALLGQTYENFELVISDNASTDGTRDICRRYAAQDSRIRYIRLPRNIGAAPNHNYVFTECRGELFKWASHDDLYARDLLRSCVAALDERPEVVLAHAGQAVIDGDGKVKVPYEYGLATDSPRAPERFRSLLFEPGGDDFYGVMRSAMLRRVKPHDSYHHADRTFVAEITLHGPFHQVPELLYFRRDHPTRAERANPSKRSRCVNLDPRRAGPLHPTPRLLAEYVWGFASAIGRAPLSSADRRACHRHLAAWLTSRVRPGVGERVEDRAPVDPDRLTVSVDDLVAGREGRQALEHHHHHH
MGSDKIHHHHHHIYWEFTTKNMLVLEFIEGIRIDDLESLNASKHNIKNITEIGTEVFFLQVFRDGFFHGDMHPGNILIDKEGALIPIDFGIMGRLSNKDRQFLALLLTYLLNKNYRKVVEIHDEANMLGKDVSHDHLSQAIRAISTPILNKPIGEVSLAKLLGQILSLSKKFNIEVQPQFTLLQKTMLMAEGTTRQINPNINMWELSRPLIDKWINDTHDPFKVLEEWFHKNKIALLKIPEIINKIDKILS
MGSDKIHHHHHHMAVTVENLTKRYGEKVALDNVSFDVKKGDILGIIGKSGAGKTTLIKILRGVESFDEGKIEVCGKTENLREITAIHLQRNFALWAEPAIYNIIRKLYAVRTDSDEGLPLEEEMEEYRKDATEILKLVGLEHKKDAYSNILSGGEKQRLILGRQLAKIYAKNGDGVLLLDEPATMACPASKQILLDVLKNINEKLGVTIIVTSHLPEIHKYLCKSCILIENGKIIMKDTPEKVVDEFLKDMVEAYDRLSKPTDKTVVEVEDASKRYYVVNGGETLNLKDISFKVKEKEILSILGPSGTGKSVILRLLAGLEAPDKGVVKLEGIDLKDFGWNRMNLRRKIGIMHQEFSLAHYLTVNELLKYRLGVKSIETVESAKLKAAELGISPKMVDGLYQLLDLPETEMRNKLDKIGISEMVVRKLFPAKPVEYDANELLEALDLNKETLNKKPTELSGGEKVRVAMALQLALEPDILLLDEPFGDLDPLTLREVSNYLKKINDTVGTTIILISHHVELIKEISDRAILIDEGKLLMNGNPEEICEKFIERSNSKFMNQ

Soluble on expression in E. coli, soluble:
SNAMTKKKVYIVSHSHWDREWYLPYEEHHMRLIELVDNVLDLIENDPEFNSFHLDGQTIILDDYLQVRPEKKEAVKKAVQAGKLKIGPFYILQDDFLISSESNVRNMLIGHLESQKWGAPVQLGYFPDTFGNMGQTPQMMQLANLPAAAFGRGVKPIGFDNQVLESDYSSQYSEMWWEGPDQTKIFGLLFANWYSNGNEIPSEKEAAIAFWKQKLADVERYASTNHLLMMNGVDHQPVQRDITKAIALANELFPEYEFIHSNFDDYLKAVQEELPEDLGTVTGELTSQETDGWYTLANTSSARVYLKQWNTKVQRQLENIAEPLAAMAYEVTGDYPHDQFDYAWKTLLQNHPHDSICGCSVDEVHRGMMTRFENANDVGHFLADEATRQLTEAIDTSVFPEKAHPFVLFNTSGYQKTEVVTVEVEIERLPFYTGKPEDLYHELKQKATPDYQVIDPTGKAVASRIVKEDVRFGYDLPKDAFRQPYMAKYLTVELSVKEMAPFSWDSFALIQGETKAFEGSLLAQPATNEMENEFIQVKIENNGSLTIADKKTGETFSKLLTFEDTGDIGNEYIFFKPTEDQGITTENVTAEITNKENSPVKASYQIKQTVMLPVAADERLEEEQKAVREFRERLAQRSTTLRPFEITTMVTMIKESNQLFFETTINNQIKDHRLRVLFPTGMVTETHEADSIYEVVTRPNQVSDTWENPTNPQHQQAFVNVHDQNKGVTIFNEGLNEYEVLADGTIAVTLIRCVGELGDWGYFATPEAQCQGEYTFKYGLSLHGKPEERFATYQQAYSAQIPFTAATTARHEGKLAPNHVYLTTAEGPIGWTAVKRQEQTNHLVVRGFNLTAQNIPCELHKETQPATCLTNVLEEPLTPAIEVDAPLRPFEIRTWRFEK
MSLGVTVSKNEAQRLENLTRDALLSTRRLSLIVDLDQTIIHTTVDPTVAEWMDEIHREEMKDAQEKANVPTEEVKGKGEETTTPPGSPGPGALGITVESPKEKNPNAEALRDVAKFQIADDLPPGYVKLKTKTTKGQNPPESEGRWYFTKPRPGLQRFLDEMCQLYEMHVYTMGTRTYADAIVKVIDPDGKIFGGRILSRDESGSFSSKNLKRLFPTDTSMVVVIDDRSDVWGDCPNLVKVVPYDFFLGIGDINSSFLPTNKSTEGHHHHHH
EHKIILYENPNFTGKKMEIVDDDVPSFHAHGYQEKVSSVRVQSGTWVGYQYPGYRGLQYLLEKGDYKDNSDFGAPHPQVQSVRRIRDMQGNPKIIIFEQENFQGHSHELSGPCPNLKETGMEKAGSVLVQAGPWVGYEQANCKGEQFVFEKGEYPRWDSWTSSRRTDSLSSLRPIK
MFNYERPKHFIQSQNPCGSRLQPPGPETSSFSSQTKQSSIIIQPRQCTEQRFSASSTLSSHITMSSSAFPASPQQHAGSNPGQRVTTTYNQSPASFLSSILPSQPDYNSSKIPSAMDSNYQQSSAGQPINAKPSQTANAKPIPRTPDHEIQGSKEALIQDLERKLKCKDTLLHNGNQRLTYEEKMARRLLGPQNAAAVFQAQDDSGAQDSQQHNSEHARLQVPTSQVRSRSTSRGDVNDQDAIQEKFYPPRFIQVPENMSIDEGRFCRMDFKVSGLPAPDVSWYLNGRTVQSDDLHKMIVSEKGLHSLIFEVVRASDAGAYACVAKNRAGEATFTVQLDVLAKEHKRAPMFIYKPQSKKVLEGDSVKLECQISAIPPPKLFWKRNNEMVQFNTDRISLYQDNTGRVTLLIKDVNKKDAGWYTVSAVNEAGVTTCNTRLDVTARPNQTLPAPKQLRVRPTFSKYLALNGKGLNVKQAFNPEGEFQRLAAQSGLYESEEL
